Assay results as given in publication PMC4477663 (Nucleic Acids Research, 2015).

Experiments:
Experiment in all cases: pull-down
[1] = molecular target: recombinant APE1 C65S+C99S (UniProt P27695 1-318, C65S | C99S)
recombinant APE1 C65S = recombinant APE1 C65S (UniProt P27695 1-318, C65S)
recombinant APE1 C99S = recombinant APE1 C99S (UniProt P27695 1-318, C99S)

Measured: binding result

Chain of recombinant APE1 C65S+C99S (P27695 whole entry C65S/C99S): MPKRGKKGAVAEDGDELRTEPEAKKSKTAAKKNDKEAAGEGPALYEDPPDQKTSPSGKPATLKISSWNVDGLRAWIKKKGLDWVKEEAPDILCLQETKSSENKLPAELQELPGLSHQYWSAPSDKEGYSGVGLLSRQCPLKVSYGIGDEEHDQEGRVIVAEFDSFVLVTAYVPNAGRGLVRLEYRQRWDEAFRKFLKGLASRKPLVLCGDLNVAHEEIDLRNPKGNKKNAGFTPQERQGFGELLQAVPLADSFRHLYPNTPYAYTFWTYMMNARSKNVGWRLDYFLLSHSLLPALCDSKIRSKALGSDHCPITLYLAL
Chain of recombinant APE1 C99S (P27695 whole entry C99S): as the sequence (P27695 whole entry C65S/C99S) above, with S65C counted along it
Chain of recombinant APE1 C65S (P27695 whole entry C65S): as the sequence (P27695 whole entry C65S/C99S) above, with S99C counted along it

B1: recombinant GST-Mia40 wild type (natural protein, human, UniProt Q8N4Q1 1-142, looked up)
chain: MSYCRQEGKDRIIFVTKEDHETPSSAELVADDPNDPYEEHGLILPNGNINWNCPCLGGMASGPCGEQFKSAFSCFHYSTEEIKGSDCVDQFRAMQECMQKYPDLYPQEDEDEEEEREKKPAEQAEETAPIEATATKEEEGSS
binds: [1] | recombinant APE1 C65S | recombinant APE1 C99S
